Results reported in the supplement of paper PMC11246515.
± gives the standard deviation of the averaged measurements.

Assay: total protein half-life in vivo (active degradation + dilution); higher = more stable protein
[1] = E. coli NCM3722 delta-clpP delta-lon delta-hslV, growth: N-lim chemostat, doubling time 6 h
[2] = E. coli NCM3722 delta-clpP, growth: N-lim chemostat, doubling time 6 h
[3] = E. coli NCM3722 delta-hslV, growth: N-lim chemostat, doubling time 6 h
[4] = E. coli NCM3722 delta-lon, growth: N-lim chemostat, doubling time 6 h
[5] = E. coli NCM3722 delta-smpB, growth: N-lim chemostat, doubling time 6 h
[6] = wild type E. coli NCM3722, growth: C-lim chemostat, doubling time 3 h
[7] = wild type E. coli NCM3722, growth: C-lim chemostat, doubling time 6 h
[8] = wild type E. coli NCM3722, growth: C-lim chemostat, doubling time 12 h
[9] = wild type E. coli NCM3722, growth: N-lim chemostat, doubling time 12 h
[10] = wild type E. coli NCM3722, growth: P-lim chemostat, doubling time 6 h
[11] = wild type E. coli NCM3722, growth: P-lim chemostat, doubling time 12 h
[12] = wild type E. coli NCM3722, growth: N-lim chemostat, doubling time 6 h

What does the source list for “MPVLHNRISNDALKAKMLAESEPRTTISFYKYFHIADPKATRDALYQLFTALNVFGRVYLAHEGINAQISVPASNVETFRAQLYAFDPALEGLRLNIALDDDGKSFWVLRMKVRDRIVADGIDDPHFDASNVGEYLQAAEVNAMLDDPDALFIDMRNHYEYEVGHFENALEIPADTFREQLPKAVEMMQAHKDKKIVMYCTGGIRCEKASAWMKHNGFNKVWHIEGGIIEYARKAREQGLPVRFIGKNFVFDERMGERISDEIIAHCHQCGAPCDSHTNCKNDGCHLLFIQCPVCAEKYKGCCSEICCEESALPPEEQRRRRAGRENGNKIFNKSRGRLNTTLCIPDPTE”?
total protein half-life in vivo [1]: 5.01 ± 0.67 h; total protein half-life in vivo [2]: 0.746 ± 0.024 h; total protein half-life in vivo [3]: 0.396 h; total protein half-life in vivo [4]: 0.483 h; total protein half-life in vivo [5]: 0.56 h; total protein half-life in vivo [6]: 0.343 ± 0.0081 h; total protein half-life in vivo [7]: 0.308 h; total protein half-life in vivo [8]: 0.65 h; total protein half-life in vivo [9]: 0.808 h; total protein half-life in vivo [10]: 0.402 ± 0.34 h; total protein half-life in vivo [11]: 1.16 ± 1.1 h

Which results are given for “MQAATVVINRRALRHNLQRLRELAPASKMVAVVKANAYGHGLLETARTLPDADAFGVARLEEALRLRAGGITKPVLLLEGFFDARDLPTISAQHFHTAVHNEEQLAALEEASLDEPVTVWMKLDTGMHRLGVRPEQAEAFYHRLTQCKNVRQPVNIVSHFARADEPKCGATEKQLAIFNTFCEGKPGQRSIAASGGILLWPQSHFDWVRPGIILYGVSPLEDRSTGADFGCQPVMSLTSSLIAVREHKAGEPVGYGGTWVSERDTRLGVVAMGYGDGYPRAAPSGTPVLVNGREVPIVGRVAMDMICVDLGPQAQDKAGDPVILWGEGLPVERIAEMTKVSAYELITRLTSRVAMKYVD [P0A6B4]”?
total protein half-life in vivo [1]: 5.14 ± 0.16 h; total protein half-life in vivo [2]: 4.27 ± 0.085 h; total protein half-life in vivo [3]: 5.12 ± 0.41 h; total protein half-life in vivo [4]: 4.99 ± 0.29 h; total protein half-life in vivo [5]: 4.58 ± 1.3 h; total protein half-life in vivo [6]: 3.1 ± 0.046 h; total protein half-life in vivo [7]: 5.75 ± 0.44 h; total protein half-life in vivo [8]: 11 ± 1.9 h; total protein half-life in vivo [12]: 4.39 ± 0.14 h; total protein half-life in vivo [9]: 7.99 ± 0.34 h; total protein half-life in vivo [10]: 5.87 ± 0.2 h; total protein half-life in vivo [11]: 11.53 ± 0.057 h

For “MQAIPMTLRGAEKLREELDFLKSVRRPEIIAAIAEAREHGDLKENAEYHAAREQQGFCEGRIKDIEAKLSNAQVIDVTKMPNNGRVIFGATVTVLNLDSDEEQTYRIVGDDEADFKQNLISVNSPIARGLIGKEEDDVVVIKTPGGEVEFEVIKVEYL [P0A6W5]”, which “total protein half-life in vivo” value [1] is on record?
The value was 5.3 ± 0.11 h.

And the “total protein half-life in vivo” value [2]?
The value was 4.38 ± 0.77 h.

What about the “total protein half-life in vivo” value [3] of the same sequence?
Its value is 3.21 ± 0.12 h.

And the “total protein half-life in vivo” value [4]?
Its value is 3.76 ± 0.18 h.

And the “total protein half-life in vivo” value [5]?
Its value is 2.44 ± 0.26 h.

What about the “total protein half-life in vivo” value [6] of the same sequence?
Its value is 2.57 ± 0.24 h.

What about the “total protein half-life in vivo” value [7] of the same sequence?
Its value is 4.48 ± 0.2 h.

What about the “total protein half-life in vivo” value [8] of the same sequence?
Its value is 6.41 ± 0.17 h.

What about the “total protein half-life in vivo” value [12] of the same sequence?
Its value is 3.27 ± 0.066 h.

What about the “total protein half-life in vivo” value [9] of the same sequence?
The value was 4.46 ± 0.28 h.

And the “total protein half-life in vivo” value [10]?
The value was 3.75 ± 0.55 h.

And the “total protein half-life in vivo” value [11]?
The value was 6.8 ± 0.8 h.

Which results are given for “MQAYFDQLDRVRYEGSKSSNPLAFRHYNPDELVLGKRMEEHLRFAACYWHTFCWNGADMFGVGAFNRPWQQPGEALALAKRKADVAFEFFHKLHVPFYCFHDVDVSPEGASLKEYINNFAQMVDVLAGKQEESGVKLLWGTANCFTNPRYGAGAATNPDPEVFSWAATQVVTAMEATHKLGGENYVLWGGREGYETLLNTDLRQEREQLGRFMQMVVEHKHKIGFQGTLLIEPKPQEPTKHQYDYDAATVYGFLKQFGLEKEIKLNIEANHATLAGHSFHHEIATAIALGLFGSVDANRGDAQLGWDTDQFPNSVEENALVMYEILKAGGFTTGGLNFDAKVRRQSTDKYDLFYGHIGAMDTMALALKIAARMIEDGELDKRIAQRYSGWNSELGQQILKGQMSLADLAKYAQEHHLSPVHQSGRQEQLENLVNHYLFDK”?
total protein half-life in vivo [1]: 4.53 ± 0.48 h; total protein half-life in vivo [3]: 2.75 h; total protein half-life in vivo [6]: 2.93 ± 0.26 h; total protein half-life in vivo [7]: 4.84 ± 0.15 h; total protein half-life in vivo [8]: 8.63 ± 0.81 h; total protein half-life in vivo [12]: 3.53 h; total protein half-life in vivo [10]: 5.81 ± 0.47 h; total protein half-life in vivo [11]: 11.6 ± 0.51 h

Which “total protein half-life in vivo” value [1] does the source give for “MQDAAPRLTFTLRDEERLMMKIGVFVPIGNNGWLISTHAPQYMPTFELNKAIVQKAEHYHFDFALSMIKLRGFGGKTEFWDHNLESFTLMAGLAAVTSRIQIYATAATLTLPPAIVARMAATIDSISGGRFGVNLVTGWQKPEYEQMGIWPGDDYFSRRYDYLTEYVQVLRDLWGTGKSDFKGDFFTMNDCRVSPQPSVPMKVICAGQSDAGMAFSARYADFNFCFGKGVNTPTAFAPTAARMKQAAEQTGRDVGSYVLFMVIADETDDAARAKWEHYKAGADEEALSWLTEQSQKDTRSGTDTNVRQMADPTSAVNINMGTLVGSYASVARMLDEVASVPGAEGVLLTFDDFLSGIETFGERIQPLMQCRAHLPALTQEVA” here?
The value was 5.26 ± 0.37 h.

And the “total protein half-life in vivo” value [2]?
The value was 3.06 ± 0.12 h.

And the “total protein half-life in vivo” value [3]?
Its value is 0.715 ± 0.26 h.

And the “total protein half-life in vivo” value [4]?
The value was 0.661 ± 0.0067 h.

And the “total protein half-life in vivo” value [5]?
Its value is 0.481 ± 0.11 h.

And the “total protein half-life in vivo” value [12]?
The value was 0.658 ± 0.16 h.

What about the “total protein half-life in vivo” value [9] of the same sequence?
The value was 0.664 ± 0.16 h.

With “MQEIYRFIDDAIEADRQRYTDIADQIWDHPETRFEEFWSAEHLASALESAGFTVTRNVGNIPNAFIASFGQGKPVIALLGEYDALAGLSQQAGCAQPTSVTPGENGHGCGHNLLGTAAFAAAIAVKKWLEQYGQGGTVRFYGCPGEEGGSGKTFMVREGVFDDVDAALTWHPEAFAGMFNTRTLANIQASWRFKGIAAHAANSPHLGRSALDAVTLMTTGTNFLNEHIIEKARVHYAITNSGGISPNVVQAQAEVLYLIRAPEMTDVQHIYDRVAKIAEGAALMTETTVECRFDKACSSYLPNRTLENAMYQALSHFGTPEWNSEELAFAKQIQATLTSNDRQNSLNNIAATGGENGKVFALRHRETVLANEVAPYAATDNVLAASTDVGDVSWKLPVAQCFSPCFAVGTPLHTWQLVSQGRTSIAHKGMLLAAKTMAATTVNLFLDSGLLQECQQEHQQVTDTQPYHCPIPKNVTPSPLK” as the sequence, how does the “total protein half-life in vivo” value [1] read?
Its value is 5.29 ± 0.17 h.

Which “total protein half-life in vivo” value [1] does the source give for “MQENISVTDSYSTGNAAQAMLEKLLQIYDVKTLVAQLNGVGENHWSAAILKRALANDSAWHRLSEKEFAHLQTLLPKPPAHHPHYAFRFIDLFAGIGGIRRGFESIGGQCVFTSEWNKHAVRTYKANHYCDPATHHFNEDIRDITLSHKEGVSDEAAAEHIRQHIPEHDVLLAGFPCQPFSLAGVSKKNSLGRAHGFACDTQGTLFFDVVRIIDARRPAMFVLENVKNLKSHDQGKTFRIIMQTLDELGYDVADAEDNGPDDPKIIDGKHFLPQHRERIVLVGFRRDLNLKADFTLRDISECFPAQRVTLAQLLDPMVEAKYILTPVLWKYLYRYAKKHQARGNGFGYGMVYPNNPQSVTRTLSARYYKDGAEILIDRGWDMATGEKDFDDPLNQQHRPRRLTPRECARLMGFEAPGEAKFRIPVSDTQAYRQFGNSVVVPVFAAVAKLLEPKIKQAVALRQQEAQHGRRSR [P0AED9]” here?
Its value is 6.76 ± 1.5 h.

And the “total protein half-life in vivo” value [2]?
Its value is 5.15 ± 0.12 h.

What about the “total protein half-life in vivo” value [3] of the same sequence?
Its value is 3.09 ± 0.34 h.

And the “total protein half-life in vivo” value [4]?
Its value is 2.96 ± 0.39 h.

And the “total protein half-life in vivo” value [5]?
The value was 2.66 ± 0.11 h.

And the “total protein half-life in vivo” value [6]?
The value was 2.31 ± 0.072 h.

What about the “total protein half-life in vivo” value [7] of the same sequence?
Its value is 3.32 ± 0.18 h.

And the “total protein half-life in vivo” value [8]?
Its value is 6.06 ± 0.83 h.

What about the “total protein half-life in vivo” value [12] of the same sequence?
The value was 3.04 ± 0.39 h.

What about the “total protein half-life in vivo” value [9] of the same sequence?
The value was 3.94 ± 0.19 h.

And the “total protein half-life in vivo” value [10]?
The value was 3.02 ± 0.45 h.

And the “total protein half-life in vivo” value [11]?
The value was 5.98 ± 1 h.

With “MQERIKACFTESIQTQIAAAEALPDAISRAAMTLVQSLLNGNKILCCGNGTSAANAQHFAASMINRFETERPSLPAIALNTDNVVLTAIANDRLHDEVYAKQVRALGHAGDVLLAISTRGNSRDIVKAVEAAVTRDMTIVALTGYDGGELAGLLGPQDVEIRIPSHRSARIQEMHMLTVNCLCDLIDNTLFPHQDD” as the sequence, how does the “total protein half-life in vivo” value [1] read?
The value was 5.68 ± 1.7 h.

And the “total protein half-life in vivo” value [2]?
Its value is 6.95 ± 0.57 h.

And the “total protein half-life in vivo” value [3]?
The value was 4.6 ± 0.094 h.

And the “total protein half-life in vivo” value [4]?
Its value is 5.12 ± 0.18 h.

And the “total protein half-life in vivo” value [5]?
Its value is 5.68 ± 1.4 h.

And the “total protein half-life in vivo” value [6]?
The value was 3.087 ± 0.0052 h.

What about the “total protein half-life in vivo” value [7] of the same sequence?
The value was 5.56 ± 0.26 h.

What about the “total protein half-life in vivo” value [8] of the same sequence?
Its value is 11.1 ± 0.025 h.

What about the “total protein half-life in vivo” value [12] of the same sequence?
The value was 4.54 h.

What about the “total protein half-life in vivo” value [9] of the same sequence?
Its value is 7.55 ± 1 h.

What about the “total protein half-life in vivo” value [10] of the same sequence?
Its value is 5.81 ± 0.52 h.

What about the “total protein half-life in vivo” value [11] of the same sequence?
The value was 13 ± 3.2 h.
